Legend:
[1] = substrate: CC(C)(O/N=C(\C(=O)N[C@@H]1C(=O)N2C(C(=O)[O-])=C(C[n+]3ccccc3)CS[C@H]12)c1csc(N)n1)C(=O)O; assay: (§1) Ratio of Kcat to Km of Staphylococcus aureus betalactamase PC1 assessed as drug hydrolysis by spectrophotometry
[2] = substrate: CC1(C)S[C@@H]2[C@H](NC(=O)Cc3ccccc3)C(=O)N2[C@H]1C(=O)O; assay: as §1
[3] = substrate: CO/N=C(\C(=O)N[C@@H]1C(=O)N2C(C(=O)[O-])=C(C[N+]3(C)CCCC3)CS[C@H]12)c1csc(N)n1; assay: as §1
[4] = substrate: Nc1nc(/C(=N/O)C(=O)N[C@@H]2C(=O)N3C(C(=O)O)=C(/C=C4\CCN([C@@H]5CCNC5)C4=O)CS[C@H]23)ns1; assay: as §1
[5] = substrate: O=C(Cc1cccs1)N[C@@H]1C(=O)N2C(C(=O)[O-])=C(C[n+]3ccccc3)CS[C@H]12; assay: as §1
[6] = substrate: CC(C)(O/N=C(\C(=O)N[C@@H]1C(=O)N2C(C(=O)[O-])=C(C[n+]3ccccc3)CS[C@H]12)c1csc(N)n1)C(=O)O; assay: (§2) Activity of Staphylococcus aureus betalactamase PC1 assessed as drug hydrolysis by spectrophotometry
[7] = substrate: CC1(C)S[C@@H]2[C@H](NC(=O)Cc3ccccc3)C(=O)N2[C@H]1C(=O)O; assay: as §2
[8] = substrate: CO/N=C(\C(=O)N[C@@H]1C(=O)N2C(C(=O)[O-])=C(C[N+]3(C)CCCC3)CS[C@H]12)c1csc(N)n1; assay: as §2
[9] = substrate: Nc1nc(/C(=N/O)C(=O)N[C@@H]2C(=O)N3C(C(=O)O)=C(/C=C4\CCN([C@@H]5CCNC5)C4=O)CS[C@H]23)ns1; assay: as §2
[10] = substrate: O=C(Cc1cccs1)N[C@@H]1C(=O)N2C(C(=O)[O-])=C(C[n+]3ccccc3)CS[C@H]12; assay: as §2
[11] = substrate: CC(C)(O/N=C(\C(=O)N[C@@H]1C(=O)N2C(C(=O)[O-])=C(C[n+]3ccccc3)CS[C@H]12)c1csc(N)n1)C(=O)O; assay: (§3) Activity of Pseudomonas aeruginosa 4352 AmpC assessed as drug hydrolysis by spectrophotometry
[12] = substrate: CC1(C)S[C@@H]2[C@H](NC(=O)Cc3ccccc3)C(=O)N2[C@H]1C(=O)O; assay: as §3
[13] = substrate: CO/N=C(\C(=O)N[C@@H]1C(=O)N2C(C(=O)[O-])=C(C[N+]3(C)CCCC3)CS[C@H]12)c1csc(N)n1; assay: as §3
[14] = substrate: Nc1nc(/C(=N/O)C(=O)N[C@@H]2C(=O)N3C(C(=O)O)=C(/C=C4\CCN([C@@H]5CCNC5)C4=O)CS[C@H]23)ns1; assay: as §3
[15] = substrate: O=C(Cc1cccs1)N[C@@H]1C(=O)N2C(C(=O)O)=C(/C=C/c3ccc([N+](=O)[O-])cc3[N+](=O)[O-])CS[C@H]12; assay: as §3
[16] = substrate: O=C(Cc1cccs1)N[C@@H]1C(=O)N2C(C(=O)[O-])=C(C[n+]3ccccc3)CS[C@H]12; assay: as §3
[17] = substrate: CC(C)(O/N=C(\C(=O)N[C@@H]1C(=O)N2C(C(=O)[O-])=C(C[n+]3ccccc3)CS[C@H]12)c1csc(N)n1)C(=O)O; assay: (§4) Ratio of Kcat to Km of Pseudomonas aeruginosa 4352 AmpC assessed as drug hydrolysis by spectrophotometry
[18] = substrate: CC1(C)S[C@@H]2[C@H](NC(=O)Cc3ccccc3)C(=O)N2[C@H]1C(=O)O; assay: as §4
[19] = substrate: CO/N=C(\C(=O)N[C@@H]1C(=O)N2C(C(=O)[O-])=C(C[N+]3(C)CCCC3)CS[C@H]12)c1csc(N)n1; assay: as §4
[20] = substrate: Nc1nc(/C(=N/O)C(=O)N[C@@H]2C(=O)N3C(C(=O)O)=C(/C=C4\CCN([C@@H]5CCNC5)C4=O)CS[C@H]23)ns1; assay: as §4
[21] = substrate: O=C(Cc1cccs1)N[C@@H]1C(=O)N2C(C(=O)O)=C(/C=C/c3ccc([N+](=O)[O-])cc3[N+](=O)[O-])CS[C@H]12; assay: as §4
[22] = substrate: O=C(Cc1cccs1)N[C@@H]1C(=O)N2C(C(=O)[O-])=C(C[n+]3ccccc3)CS[C@H]12; assay: as §4
[23] = substrate: CC(C)(O/N=C(\C(=O)N[C@@H]1C(=O)N2C(C(=O)[O-])=C(C[n+]3ccccc3)CS[C@H]12)c1csc(N)n1)C(=O)O; assay: (§5) Activity of Pseudomonas aeruginosa 18SH AmpC assessed as drug hydrolysis by spectrophotometry
[24] = substrate: CC1(C)S[C@@H]2[C@H](NC(=O)Cc3ccccc3)C(=O)N2[C@H]1C(=O)O; assay: as §5
[25] = substrate: CO/N=C(\C(=O)N[C@@H]1C(=O)N2C(C(=O)[O-])=C(C[N+]3(C)CCCC3)CS[C@H]12)c1csc(N)n1; assay: as §5
[26] = substrate: Nc1nc(/C(=N/O)C(=O)N[C@@H]2C(=O)N3C(C(=O)O)=C(/C=C4\CCN([C@@H]5CCNC5)C4=O)CS[C@H]23)ns1; assay: as §5
[27] = substrate: O=C(Cc1cccs1)N[C@@H]1C(=O)N2C(C(=O)[O-])=C(C[n+]3ccccc3)CS[C@H]12; assay: as §5
[28] = substrate: CC1(C)S[C@@H]2[C@H](NC(=O)Cc3ccccc3)C(=O)N2[C@H]1C(=O)O; assay: (§6) Ratio of Kcat to Km of Pseudomonas aeruginosa 18SH AmpC assessed as drug hydrolysis by spectrophotometry
[29] = substrate: CO/N=C(\C(=O)N[C@@H]1C(=O)N2C(C(=O)[O-])=C(C[N+]3(C)CCCC3)CS[C@H]12)c1csc(N)n1; assay: as §6
[30] = substrate: Nc1nc(/C(=N/O)C(=O)N[C@@H]2C(=O)N3C(C(=O)O)=C(/C=C4\CCN([C@@H]5CCNC5)C4=O)CS[C@H]23)ns1; assay: as §6
[31] = substrate: O=C(Cc1cccs1)N[C@@H]1C(=O)N2C(C(=O)[O-])=C(C[n+]3ccccc3)CS[C@H]12; assay: as §6
[32] = substrate: CC(C)(O/N=C(\C(=O)N[C@@H]1C(=O)N2C(C(=O)[O-])=C(C[n+]3ccccc3)CS[C@H]12)c1csc(N)n1)C(=O)O; assay: (§7) Activity of Pseudomonas aeruginosa MK-1184 AmpC assessed as drug hydrolysis by spectrophotometry
[33] = substrate: CC1(C)S[C@@H]2[C@H](NC(=O)Cc3ccccc3)C(=O)N2[C@H]1C(=O)O; assay: as §7
[34] = substrate: CO/N=C(\C(=O)N[C@@H]1C(=O)N2C(C(=O)[O-])=C(C[N+]3(C)CCCC3)CS[C@H]12)c1csc(N)n1; assay: as §7
[35] = substrate: Nc1nc(/C(=N/O)C(=O)N[C@@H]2C(=O)N3C(C(=O)O)=C(/C=C4\CCN([C@@H]5CCNC5)C4=O)CS[C@H]23)ns1; assay: as §7
[36] = substrate: O=C(Cc1cccs1)N[C@@H]1C(=O)N2C(C(=O)[O-])=C(C[n+]3ccccc3)CS[C@H]12; assay: as §7
[37] = substrate: CC(C)(O/N=C(\C(=O)N[C@@H]1C(=O)N2C(C(=O)[O-])=C(C[n+]3ccccc3)CS[C@H]12)c1csc(N)n1)C(=O)O; assay: (§8) Ratio of Kcat to Km of Pseudomonas aeruginosa MK-1184 AmpC assessed as drug hydrolysis by spectrophotometry
[38] = substrate: CC1(C)S[C@@H]2[C@H](NC(=O)Cc3ccccc3)C(=O)N2[C@H]1C(=O)O; assay: as §8
[39] = substrate: CO/N=C(\C(=O)N[C@@H]1C(=O)N2C(C(=O)[O-])=C(C[N+]3(C)CCCC3)CS[C@H]12)c1csc(N)n1; assay: as §8
[40] = substrate: Nc1nc(/C(=N/O)C(=O)N[C@@H]2C(=O)N3C(C(=O)O)=C(/C=C4\CCN([C@@H]5CCNC5)C4=O)CS[C@H]23)ns1; assay: as §8
[41] = substrate: O=C(Cc1cccs1)N[C@@H]1C(=O)N2C(C(=O)[O-])=C(C[n+]3ccccc3)CS[C@H]12; assay: as §8
[42] = substrate: CC(C)(O/N=C(\C(=O)N[C@@H]1C(=O)N2C(C(=O)[O-])=C(C[n+]3ccccc3)CS[C@H]12)c1csc(N)n1)C(=O)O; assay: (§9) Activity of Pseudomonas aeruginosa AmpC assessed as drug hydrolysis by spectrophotometry
[43] = substrate: CC1(C)S[C@@H]2[C@H](NC(=O)Cc3ccccc3)C(=O)N2[C@H]1C(=O)O; assay: as §9
[44] = substrate: CO/N=C(\C(=O)N[C@@H]1C(=O)N2C(C(=O)[O-])=C(C[N+]3(C)CCCC3)CS[C@H]12)c1csc(N)n1; assay: as §9
[45] = substrate: Nc1nc(/C(=N/O)C(=O)N[C@@H]2C(=O)N3C(C(=O)O)=C(/C=C4\CCN([C@@H]5CCNC5)C4=O)CS[C@H]23)ns1; assay: as §9
[46] = substrate: O=C(Cc1cccs1)N[C@@H]1C(=O)N2C(C(=O)[O-])=C(C[n+]3ccccc3)CS[C@H]12; assay: as §9
[47] = substrate: CC1(C)S[C@@H]2[C@H](NC(=O)Cc3ccccc3)C(=O)N2[C@H]1C(=O)O; assay: (§10) Ratio of Kcat to Km of Pseudomonas aeruginosa AmpC assessed as drug hydrolysis by spectrophotometry
[48] = substrate: CO/N=C(\C(=O)N[C@@H]1C(=O)N2C(C(=O)[O-])=C(C[N+]3(C)CCCC3)CS[C@H]12)c1csc(N)n1; assay: as §10
[49] = substrate: Nc1nc(/C(=N/O)C(=O)N[C@@H]2C(=O)N3C(C(=O)O)=C(/C=C4\CCN([C@@H]5CCNC5)C4=O)CS[C@H]23)ns1; assay: as §10
[50] = substrate: O=C(Cc1cccs1)N[C@@H]1C(=O)N2C(C(=O)[O-])=C(C[n+]3ccccc3)CS[C@H]12; assay: as §10

B1: Beta-lactamase (Staphylococcus aureus), P00807 (protein)
chain: MKKLIFLIVIALVLSACNSNSSHAKELNDLEKKYNAHIGVYALDTKSGKEVKFNSDKRFAYASTSKAINSAILLEQVPYNKLNKKVHINKDDIVAYSPILEKYVGKDITLKALIEASMTYSDNTANNKIIKEIGGIKKVKQRLKELGDKVTNPVRYEIELNYYSPKSKKDTSTPAAFGKTLNKLIANGKLSKENKKFLLDLMLNNKSGDTLIKDGVPKDYKVADKSGQAITYASRNDVAFVYPKGQSEPIVLVIFTNKDNKSDKPNDKLISETAKSVMKEF
[1]
  kcat/Km: 12 M⁻¹ s⁻¹
[2]
  kcat/Km: 1.9e+07 M⁻¹ s⁻¹
[3]
  kcat/Km: 33 M⁻¹ s⁻¹
[4]
  kcat/Km: 310 M⁻¹ s⁻¹
[5]
  kcat/Km: 1300 M⁻¹ s⁻¹
[6]
  Km: 29 µM
  kcat: 0.00035 s⁻¹
[7]
  Km: 3.4 µM
  kcat: 65 s⁻¹
[8]
  Km: 61 µM
  kcat: 0.002 s⁻¹
[9]
  Km: 78 µM
  kcat: 0.024 s⁻¹
[10]
  Km: 110 µM
  kcat: 0.14 s⁻¹

B2: Beta-lactamase (Pseudomonas aeruginosa (strain ATCC 15692 / PAO1 / 1C / PRS 101 / LMG12228)), P24735 (protein)
chain: MRDTRFPCLCGIAASTLLFATTPAIAGEAPADRLKALVDAAVQPVMKANDIPGLAVAISLKGEPHYFSYGLASKEDGRRVTPETLFEIGSVSKTFTATLAGYALTQDKMRLDDRASQHWPALQGSRFDGISLLDLATYTAGGLPLQFPDSVQKDQAQIRDYYRQWQPTYAPGSQRLYSNPSIGLFGYLAARSLGQPFERLMEQQVFPALGLEQTHLDVPEAALAQYAQGYGKDDRPLRVGPGPLDAEGYGVKTSAADLLRFVDANLHPERLDRPWAQALDATHRGYYKVGDMTQGLGWEAYDWPISLKRLQAGNSTPMALQPHRIARLPAPQALEGQRLLNKTGSTNGFGAYVAFVPGRDLGLVILANRNYPNAERVKIAYAILSGLEQQGKVPLKR
[11]
  Km: 8 µM
  kcat: < 0.01 s⁻¹
[12]
  Km: 11 µM
  kcat: 37 s⁻¹
[13]
  Km: 370 µM
  kcat: < 0.012 s⁻¹
[14]
  Km: 55 µM
  kcat: < 0.024 s⁻¹
[15]
  Km: 12 µM
  kcat: 68 s⁻¹
[16]
  Km: 320 µM
  kcat: 100 s⁻¹
[17]
  kcat/Km: < 1300 M⁻¹ s⁻¹
[18]
  kcat/Km: 3.4e+06 M⁻¹ s⁻¹
[19]
  kcat/Km: < 33 M⁻¹ s⁻¹
[20]
  kcat/Km: < 440 M⁻¹ s⁻¹
[21]
  kcat/Km: 5.7e+06 M⁻¹ s⁻¹
[22]
  kcat/Km: 310000 M⁻¹ s⁻¹
[23]
  Km: 20 µM
  kcat: < 0.1 s⁻¹
[24]
  Km: 40 µM
  kcat: 45 s⁻¹
[25]
  Km: 210 µM
  kcat: < 0.1 s⁻¹
[26]
  Km: 280 µM
  kcat: 3.6 s⁻¹
[27]
  Km: 71 µM
  kcat: 130 s⁻¹
[28]
  kcat/Km: 1.1e+06 M⁻¹ s⁻¹
[29]
  kcat/Km: 9000 M⁻¹ s⁻¹
[30]
  kcat/Km: 13000 M⁻¹ s⁻¹
[31]
  kcat/Km: 1.8e+06 M⁻¹ s⁻¹
[32]
  Km: 12 µM
  kcat: 0.69 s⁻¹
[33]
  Km: 3 µM
  kcat: 20 s⁻¹
[34]
  Km: 38 µM
  kcat: 0.33 s⁻¹
[35]
  Km: 42 µM
  kcat: 0.45 s⁻¹
[36]
  Km: 21 µM
  kcat: 22 s⁻¹
[37]
  kcat/Km: 58000 M⁻¹ s⁻¹
[38]
  kcat/Km: 6.7e+06 M⁻¹ s⁻¹
[39]
  kcat/Km: 8600 M⁻¹ s⁻¹
[40]
  kcat/Km: 11000 M⁻¹ s⁻¹
[41]
  kcat/Km: 1.1e+06 M⁻¹ s⁻¹
[42]
  kcat: < 0.0095 s⁻¹
[43]
  Km: 7.9 µM
  kcat: 86 s⁻¹
[44]
  Km: 230 µM
  kcat: 3.1 s⁻¹
[45]
  Km: 29 µM
  kcat: 230 s⁻¹
[46]
  Km: 200 µM
  kcat: 16 s⁻¹
[47]
  kcat/Km: 1.1e+07 M⁻¹ s⁻¹
[48]
  kcat/Km: 1300 M⁻¹ s⁻¹
[49]
  kcat/Km: 7.9e+06 M⁻¹ s⁻¹
[50]
  kcat/Km: 80000 M⁻¹ s⁻¹
